Substitutions are numbered along the chain they refer to. Names and notes keep the numbering of the source.
Experiments:
Test in all cases: purified protein
[1] = test system: CC(C)(COP(=O)(O)OP(=O)(O)OC[C@H]1O[C@@H](n2cnc3c(N)ncnc32)[C@H](O)[C@@H]1OP(=O)(O)O)[C@@H](O)C(=O)NCCC(=O)NCCSC(=O)c1cc(O)c2ccccc2c1O; conditions: 50 mM K+HEPES pH 7.5, 1 mM DTNB, 25 °C
[2] = test system: CC(C)(COP(=O)(O)OP(=O)(O)OC[C@H]1O[C@@H](n2cnc3c(N)ncnc32)[C@H](O)[C@@H]1OP(=O)(O)O)[C@@H](O)C(=O)NCCC(=O)NCCSC(=O)c1ccccc1; conditions: 50 mM K+HEPES pH 7.5, 1 mM DTNB, 25 °C
[3] = test system: CCCCCCCCCCCC(=O)SCCNC(=O)CCNC(=O)[C@H](O)C(C)(C)COP(=O)(O)OP(=O)(O)OC[C@H]1O[C@@H](n2cnc3c(N)ncnc32)[C@H](O)[C@@H]1OP(=O)(O)O; conditions: 50 mM K+HEPES pH 7.5, 1 mM DTNB, 25 °C
purified protein [4] = substrate: CC(C(=O)O)C(=O)SCCNC(=O)CCNC(=O)[C@H](O)C(C)(C)COP(=O)(O)OP(=O)(O)OC[C@H]1O[C@@H](n2cnc3c(N)ncnc32)[C@H](O)[C@@H]1OP(=O)(O)O; conditions: 50 mM K+HEPES pH 7.5, 1 mM DTNB, 25 °C
purified protein [5] = substrate: CC(C)(COP(=O)(O)OP(=O)(O)OC[C@H]1O[C@@H](n2cnc3c(N)ncnc32)[C@H](O)[C@@H]1OP(=O)(O)O)[C@@H](O)C(=O)NCCC(=O)NCCSC(=O)/C=C/c1ccc(O)cc1; conditions: 50 mM K+HEPES pH 7.5, 1 mM DTNB, 25 °C
purified protein [6] = substrate: CC(C)(COP(=O)(O)OP(=O)(O)OC[C@H]1O[C@@H](n2cnc3c(N)ncnc32)[C@H](O)[C@@H]1OP(=O)(O)O)[C@@H](O)C(=O)NCCC(=O)NCCSC(=O)c1cc(O)c2ccccc2c1O; conditions: 50 mM K+HEPES pH 7.5, 1 mM DTNB, 25 °C; remark: listed apart in the source
purified protein [7] = substrate: CC(C)(COP(=O)(O)OP(=O)(O)OC[C@H]1O[C@@H](n2cnc3c(N)ncnc32)[C@H](O)[C@@H]1OP(=O)(O)O)[C@@H](O)C(=O)NCCC(=O)NCCSC(=O)c1ccc(O)cc1; conditions: 50 mM K+HEPES pH 7.5, 25 °C
purified protein [8] = substrate: CC(C)(COP(=O)(O)OP(=O)(O)OC[C@H]1O[C@@H](n2cnc3c(N)ncnc32)[C@H](O)[C@@H]1OP(=O)(O)O)[C@@H](O)C(=O)NCCC(=O)NCCSC(=O)c1ccccc1; conditions: 50 mM K+HEPES pH 7.5, 1 mM DTNB, 25 °C; remark: listed apart in the source
purified protein [9] = substrate: CC(C)=CC(=O)SCCNC(=O)CCNC(=O)[C@H](O)C(C)(C)COP(=O)(O)OP(=O)(O)OC[C@H]1O[C@@H](n2cnc3c(N)ncnc32)[C@H](O)[C@@H]1OP(=O)(O)O; conditions: 50 mM K+HEPES pH 7.5, 1 mM DTNB, 25 °C
purified protein [10] = substrate: CCC(=O)SCCNC(=O)CCNC(=O)[C@H](O)C(C)(C)COP(=O)(O)OP(=O)(O)OC[C@H]1O[C@@H](n2cnc3c(N)ncnc32)[C@H](O)[C@@H]1OP(=O)(O)O; conditions: 50 mM K+HEPES pH 7.5, 1 mM DTNB, 25 °C
purified protein [11] = substrate: CCCCCC(=O)SCCNC(=O)CCNC(=O)[C@H](O)C(C)(C)COP(=O)(O)OP(=O)(O)OC[C@H]1O[C@@H](n2cnc3c(N)ncnc32)[C@H](O)[C@@H]1OP(=O)(O)O; conditions: 50 mM K+HEPES pH 7.5, 1 mM DTNB, 25 °C
purified protein [12] = substrate: CCCCCCCC/C=C\CCCCCCCC(=O)SCCNC(=O)CCNC(=O)[C@H](O)C(C)(C)COP(=O)(O)OP(=O)(O)OC[C@H]1O[C@@H](n2cnc3c(N)ncnc32)[C@H](O)[C@@H]1OP(=O)(O)O; conditions: 50 mM K+HEPES pH 7.5, 1 mM DTNB, 25 °C
purified protein [13] = substrate: CCCCCCCCCCCC(=O)SCCNC(=O)CCNC(=O)[C@H](O)C(C)(C)COP(=O)(O)OP(=O)(O)OC[C@H]1O[C@@H](n2cnc3c(N)ncnc32)[C@H](O)[C@@H]1OP(=O)(O)O; conditions: 50 mM K+HEPES pH 7.5, 1 mM DTNB, 25 °C; remark: listed apart in the source
purified protein [14] = substrate: CCCCCCCCCCCCCC(=O)SCCNC(=O)CCNC(=O)[C@H](O)C(C)(C)COP(=O)(O)OP(=O)(O)OC[C@H]1O[C@@H](n2cnc3c(N)ncnc32)[C@H](O)[C@@H]1OP(=O)(O)O; conditions: 50 mM K+HEPES pH 7.5, 1 mM DTNB, 25 °C
purified protein [15] = substrate: CCCCCCCCCCCCCCCC(=O)SCCNC(=O)CCNC(=O)[C@H](O)C(C)(C)COP(=O)(O)OP(=O)(O)OC[C@H]1O[C@@H](n2cnc3c(N)ncnc32)[C@H](O)[C@@H]1OP(=O)(O)O; conditions: 50 mM K+HEPES pH 7.5, 1 mM DTNB, 25 °C
purified protein [16] = substrate: CCCCCCCCCCCC(=O)SCCNC(=O)CCNC(=O)[C@H](O)C(C)(C)COP(=O)(O)OP(=O)(O)OC[C@H]1O[C@@H](n2cnc3c(N)ncnc32)[C@H](O)[C@@H]1OP(=O)(O)O; assay type: biochemical, Escherichia coli; conditions: 50 mM K+HEPES pH 7.5, 1 mM DTNB, 25 °C

YbdB (Escherichia coli K-12; M68V) gave a Km [1] of 5.9 ± 0.6 µM, a kcat [1] of 0.16 ± 0.02 s⁻¹ and a kcat/Km [1] of 27000 M⁻¹ s⁻¹. The Km [2] was 24 ± 2 µM, the kcat [2] was 1.8 ± 0.1 s⁻¹ and the kcat/Km [2] was 75000 M⁻¹ s⁻¹. It also gave a Km [3] of 10.4 ± 0.3 µM, a kcat [3] of 0.046 ± 0.004 s⁻¹ and a kcat/Km [3] of 4500 M⁻¹ s⁻¹.

B1: YdiI (Escherichia coli K-12) (protein)
chain: MIWKRKITLEALNAMGEGNMVGFLDIRFEHIGDDTLEATMPVDSRTKQPFGLLHGGASVVLAESIGSVAGYLCTEGEQKVVGLEINANHVRSAREGRVRGVCKPLHLGSRHQVWQIEIFDEKGRLCCSSRLTTAIL
B1 was tested, and the Km (purified protein [4]) was 115 ± 7 µM, the kcat (purified protein [4]) was 0.67 ± 0.03 s⁻¹ and the kcat/Km (purified protein [4]) was 5800 M⁻¹ s⁻¹. It also gave a Km (purified protein [5]) of 30 ± 2 µM, a kcat (purified protein [5]) of 8.4 ± 0.2 s⁻¹ and a kcat/Km (purified protein [5]) of 280000 M⁻¹ s⁻¹. For the same molecule, the Km (purified protein [6]) was 8 ± 1 µM, the kcat (purified protein [6]) was 1.6 ± 0.1 s⁻¹ and the kcat/Km (purified protein [6]) was 200000 M⁻¹ s⁻¹. It also gave a Km (purified protein [7]) of 9 ± 1 µM, a kcat (purified protein [7]) of 5.2 ± 0.2 s⁻¹ and a kcat/Km (purified protein [7]) of 580000 M⁻¹ s⁻¹. The Km (purified protein [8]) was 25 ± 3 µM, the kcat (purified protein [8]) was 17.7 ± 0.7 s⁻¹ and the kcat/Km (purified protein [8]) was 710000 M⁻¹ s⁻¹. It also gave a Km (purified protein [9]) of 69.4 ± 0.4 µM, a kcat (purified protein [9]) of 0.5 ± 0.02 s⁻¹ and a kcat/Km (purified protein [9]) of 7300 M⁻¹ s⁻¹. For the same molecule, the Km (purified protein [10]) was 120 ± 10 µM, the kcat (purified protein [10]) was 0.21 ± 0.01 s⁻¹ and the kcat/Km (purified protein [10]) was 1700 M⁻¹ s⁻¹. The Km (purified protein [11]) was 21 ± 1 µM, the kcat (purified protein [11]) was 0.3 ± 0.01 s⁻¹ and the kcat/Km (purified protein [11]) was 14000 M⁻¹ s⁻¹. It also gave a Km (purified protein [12]) of 1.3 ± 0.1 µM, a kcat (purified protein [12]) of 0.12 ± 0.01 s⁻¹ and a kcat/Km (purified protein [12]) of 92000 M⁻¹ s⁻¹. It also gave a Km (purified protein [13]) of 2.2 ± 0.1 µM, a kcat (purified protein [13]) of 0.74 ± 0.01 s⁻¹ and a kcat/Km (purified protein [13]) of 330000 M⁻¹ s⁻¹. The Km (purified protein [14]) was 1.5 ± 0.2 µM, the kcat (purified protein [14]) was 0.62 ± 0.01 s⁻¹ and the kcat/Km (purified protein [14]) was 410000 M⁻¹ s⁻¹. For the same molecule, the Km (purified protein [15]) was 1.9 ± 0.1 µM, the kcat (purified protein [15]) was 0.58 ± 0.01 s⁻¹ and the kcat/Km (purified protein [15]) was 300000 M⁻¹ s⁻¹.

B2: YdiI (Escherichia coli K-12; V68M) (protein)
chain: B1 chain with V68M
B2 was tested, and the Km (purified protein [16]) was 28 ± 2 µM, the kcat (purified protein [16]) was 0.77 ± 0.03 s⁻¹ and the kcat/Km (purified protein [16]) was 28000 M⁻¹ s⁻¹.

B3: YbdB (Escherichia coli K-12) (protein)
chain: MIWKRHLTLDELNATSDNTMVAHLGIVYTRLGDDVLEAEMPVDTRTHQPFGLLHGGASAALAETLGSMAGFMMTRDGQCVVGTELNATHHRPVSEGKVRGVCQPLHLGRQNQSWEIVVFDEQGRRCCTCRLGTAVLG
Molecule B3 has a Km (purified protein [5]) of 10 ± 1 µM, a kcat (purified protein [5]) of 0.82 ± 0.02 s⁻¹ and a kcat/Km (purified protein [5]) of 82000 M⁻¹ s⁻¹. For the same molecule, the Km (purified protein [6]) was 17 ± 1 µM, the kcat (purified protein [6]) was 0.0093 ± 0.0002 s⁻¹ and the kcat/Km (purified protein [6]) was 550 M⁻¹ s⁻¹. The Km (purified protein [12]) was 13 ± 2 µM, the kcat (purified protein [12]) was 0.03 ± 0.002 s⁻¹ and the kcat/Km (purified protein [12]) was 2300 M⁻¹ s⁻¹. For the same molecule, the Km (purified protein [14]) was 11 ± 1 µM, the kcat (purified protein [14]) was 0.078 ± 0.003 s⁻¹ and the kcat/Km (purified protein [14]) was 7100 M⁻¹ s⁻¹.

— article PMC4116150
